Sequences and labels used below:
B1: Exemplary anti-C3d construct 55 (antibody, mouse IgG1, kappa, V domains shown)
VH: EVQLQQSGPVLVKPGASVKMSCKASGYTFTAYYMNWVRQSHGKSLEWIGVINPYNGGTSYNQKFKGKATLTVDKSSSTAYMELNSLTSEDSAVYYCSSPYWGQGTSVTVSS
VL: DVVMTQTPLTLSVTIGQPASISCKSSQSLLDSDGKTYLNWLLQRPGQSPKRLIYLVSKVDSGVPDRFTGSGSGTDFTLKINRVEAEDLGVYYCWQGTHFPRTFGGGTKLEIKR
notes: also called Exemplary construct 55
B2: Exemplary anti-C3d construct 56 (Fab) (Fab, V domains shown)
VH: B1 VH
VL: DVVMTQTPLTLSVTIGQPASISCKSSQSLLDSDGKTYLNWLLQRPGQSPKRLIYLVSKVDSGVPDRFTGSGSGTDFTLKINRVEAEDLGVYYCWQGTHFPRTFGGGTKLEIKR
notes: also called Exemplary construct 56
B3: Exemplary anti-C3d construct 34 (antibody, mouse IgG1, kappa, V domains shown)
VH: B1 VH
VL: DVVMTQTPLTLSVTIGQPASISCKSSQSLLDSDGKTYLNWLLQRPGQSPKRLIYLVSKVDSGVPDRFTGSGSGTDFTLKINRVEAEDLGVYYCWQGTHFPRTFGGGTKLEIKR
notes: muHC2 murine IgG1 heavy chain and muLC2 murine kappa light chain; also called Exemplary construct 34
B4: Exemplary anti-C3d construct 74 (antibody, V domains shown)
VH: QVQLVQSGAEVKKPGASVKVSCKASGYTFTNYYINWVRQAPGQGLEWIGVINPYNGGTSYNQKFKGRATLTVDTSTSTAYMELSSLRSEDTAVYFCSSPYWGQGTLVTVSS
VL: DVVMTQSPLSLPVTLGQPASISCKSSQSLLDSDGKTYLNWFQQRPGQSPRRLIYLVSKLDSGVPDRFSGSGSGTDFTLKISRVEAEDVGVYYCWQGTHFPRTFGGGTKVEIK
notes: Humanized 3d8b VH4 / VK3; also called Exemplary construct 74
B5: Exemplary anti-C3d construct 78 (antibody, V domains shown)
VH: B4 VH with N55S
VL: B4 VL
notes: Humanized 3d8b VH4 N54S / VK3; also called Exemplary construct 78
B6: Exemplary anti-C3d construct 77 (antibody, V domains shown)
VH: B4 VH with I48M, N55H, A68V, L70M
VL: B4 VL
notes: Humanized 3d8b VH5 N54H / VK3; also called Exemplary construct 77
B7: Exemplary anti-C3d construct 86 (antibody, human IgG4 S228P, kappa)
heavy: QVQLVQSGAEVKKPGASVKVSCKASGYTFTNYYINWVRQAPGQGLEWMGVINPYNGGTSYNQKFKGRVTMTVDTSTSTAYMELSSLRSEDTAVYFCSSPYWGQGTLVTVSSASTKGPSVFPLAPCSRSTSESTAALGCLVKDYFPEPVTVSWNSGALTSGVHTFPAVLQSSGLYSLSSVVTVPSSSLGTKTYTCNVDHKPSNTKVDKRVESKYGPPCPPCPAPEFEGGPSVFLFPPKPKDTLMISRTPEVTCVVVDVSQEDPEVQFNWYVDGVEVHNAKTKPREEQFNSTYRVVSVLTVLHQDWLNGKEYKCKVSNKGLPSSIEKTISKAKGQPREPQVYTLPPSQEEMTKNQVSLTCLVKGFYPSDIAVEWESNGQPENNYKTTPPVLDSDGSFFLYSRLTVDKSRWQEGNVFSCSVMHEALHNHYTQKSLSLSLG
light: DVVMTQSPLSLPVTLGQPASISCKSSQSLLDSDGKTYLNWFQQRPGQSPRRLIYLVSKLDSGVPDRFSGSGSGTDFTLKISRVEAEDVGVYYCWQGTHFPRTFGGGTKVEIKRTVAAPSVFIFPPSDEQLKSGTASVVCLLNNFYPREAKVQWKVDNALQSGNSQESVTEQDSKDSTYSLSSTLTLSKADYEKHKVYACEVTHQGLSSPVTKSFNRGEC
notes: HC1 (VH5) humanized IgG4 S228P/L235E; LC1 (Vk3) humanized kappa; also called Exemplary construct 86
B8: Exemplary anti-C3d construct 76 (antibody, V domains shown)
VH: B4 VH with N55H
VL: B4 VL
notes: Humanized 3d8b VH4 N54H / VK3; also called Exemplary construct 76
B9: Exemplary anti-C3d construct 75 (antibody, V domains shown)
VH: B4 VH with I48M, A68V, L70M
VL: B4 VL
notes: Humanized 3d8b VH5 / VK3; also called Exemplary construct 75
B10: Exemplary anti-C3d construct 79 (antibody, V domains shown)
VH: B4 VH with I48M, N55S, A68V, L70M
VL: B4 VL
notes: Humanized 3d8b VH5 N54S / VK3; also called Exemplary construct 79
B11: Exemplary anti-C3d construct 93 (antibody, human IgG4 S228P, kappa, V domains shown)
VH: B4 VH with I48M, N55S, A68V, L70M
VL: DVVMTQSPLSLPVTLGQPASISCKSSQSLLDSDGKTYLNWFQQRPGQSPRRLIYLVSKLDSGVPDRFSGSGSGTDFTLKISRVEAEDVGVYYCWQGTHFPRTFGGGTKVEIKR
notes: also called Exemplary construct 93
B12: Exemplary anti-C3d construct 87 (antibody, human IgG4 S228P, kappa)
heavy: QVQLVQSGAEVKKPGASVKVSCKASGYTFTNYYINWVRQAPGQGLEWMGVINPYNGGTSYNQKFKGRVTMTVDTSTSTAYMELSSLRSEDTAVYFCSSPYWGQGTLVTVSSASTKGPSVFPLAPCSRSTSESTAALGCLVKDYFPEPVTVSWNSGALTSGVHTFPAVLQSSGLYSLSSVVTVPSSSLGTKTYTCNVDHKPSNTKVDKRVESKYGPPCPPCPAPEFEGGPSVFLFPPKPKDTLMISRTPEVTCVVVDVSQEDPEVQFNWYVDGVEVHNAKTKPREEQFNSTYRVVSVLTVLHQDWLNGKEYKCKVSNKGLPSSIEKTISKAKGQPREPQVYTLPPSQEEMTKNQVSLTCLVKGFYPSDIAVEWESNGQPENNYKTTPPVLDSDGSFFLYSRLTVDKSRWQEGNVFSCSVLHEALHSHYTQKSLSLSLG
light: B7 light
notes: also called Exemplary construct 87
B13: Exemplary Fusion Construct 99 (other)
heavy: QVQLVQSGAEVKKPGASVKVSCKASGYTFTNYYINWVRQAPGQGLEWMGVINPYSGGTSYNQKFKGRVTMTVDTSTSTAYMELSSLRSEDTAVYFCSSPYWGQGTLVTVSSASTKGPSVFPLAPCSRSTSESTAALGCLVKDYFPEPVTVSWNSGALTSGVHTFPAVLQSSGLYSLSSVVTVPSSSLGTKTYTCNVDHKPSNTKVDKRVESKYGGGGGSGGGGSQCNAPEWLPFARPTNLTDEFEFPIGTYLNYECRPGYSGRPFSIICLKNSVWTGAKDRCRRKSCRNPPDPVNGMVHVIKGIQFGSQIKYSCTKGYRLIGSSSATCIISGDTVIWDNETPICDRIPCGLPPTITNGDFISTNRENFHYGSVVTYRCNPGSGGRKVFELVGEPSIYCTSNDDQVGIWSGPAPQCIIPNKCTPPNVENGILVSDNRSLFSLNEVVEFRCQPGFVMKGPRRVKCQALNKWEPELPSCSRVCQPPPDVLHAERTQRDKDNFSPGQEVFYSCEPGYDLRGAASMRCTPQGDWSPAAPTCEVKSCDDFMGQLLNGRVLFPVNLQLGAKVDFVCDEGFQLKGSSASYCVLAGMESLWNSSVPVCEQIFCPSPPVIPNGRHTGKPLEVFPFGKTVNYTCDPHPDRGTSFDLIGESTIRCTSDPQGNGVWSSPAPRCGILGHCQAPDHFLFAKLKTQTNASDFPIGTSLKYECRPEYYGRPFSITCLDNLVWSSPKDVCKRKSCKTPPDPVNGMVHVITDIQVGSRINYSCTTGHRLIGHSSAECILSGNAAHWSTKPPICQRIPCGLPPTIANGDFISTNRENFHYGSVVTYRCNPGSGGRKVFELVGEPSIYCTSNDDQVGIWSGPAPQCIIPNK
light: B7 light
notes: Order chain, linker, modulator follows claim 321

Positions count from the first letter of the chain named. Names and notes keep the numbering of the source.

The target in the first test is T1, human C3d (human, UniProt P01024 1002-1303).
T1 construct: domain: C3d; also called C3d antigen
T1 sequence (P01024 1002-1303 limits assumed): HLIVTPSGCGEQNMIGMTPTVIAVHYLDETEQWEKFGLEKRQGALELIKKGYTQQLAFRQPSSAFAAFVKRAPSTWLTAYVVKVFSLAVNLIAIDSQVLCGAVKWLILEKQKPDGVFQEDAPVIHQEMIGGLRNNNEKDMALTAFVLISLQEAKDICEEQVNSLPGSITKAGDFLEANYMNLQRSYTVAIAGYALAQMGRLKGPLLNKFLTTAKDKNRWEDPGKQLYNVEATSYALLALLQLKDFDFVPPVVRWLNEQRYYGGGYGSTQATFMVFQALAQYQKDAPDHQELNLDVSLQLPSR
In words: ELISA, human C3d coated on plate. Background: In an ELISA, binding on a coated surface is turned into a signal by an enzyme label.
For B1, a half-maximal effect (EC50) was put at 0.24 nM. Same read-out and setting: the same measure for B2: 0.55 nM. Turning to B3, the EC50 (as a rule, the concentration needed to bring the measured effect to its halfway point) amounted to 0.32 nM.

The target in the next test is T1, human C3d. Description: ELISA, human C3d coated on plate. This is another data set of the same source.
As for B4, it took 0.017 nM to reach a half-maximal effect (EC50). The molecule B5 displayed a half-maximal effective concentration (EC50) of 0.018 nM. The molecule B6 gave an EC50 of 0.011 nM. B7 came in with an EC50 of 0.03 nM.

Turning to B8, the EC50 amounted to 0.018 nM. Still for that read-out and setting: the same measure for B9: 0.029 nM; for B10: 0.02 nM.

Another test has as its target T1, human C3d. Description: ELISA, human C3d coated on plate. This is another data set of the same source.
Take B11: the EC50 was determined as 0.02 nM. With B12, the 50% effective concentration (EC50) was found to be 0.02 nM.

The molecule B7 yielded an EC50 of 0.03 nM. B13: the response was half-maximal at 1.54 nM (EC50).

The next test has as its target T1, human C3d. Description: SPR (Biacore 3000), human C3d amine-coupled to CM5 chip, construct as analyte. For orientation: In SPR one partner is held on a chip, and binding of the other changes the refractive index at the surface.
For the molecule B4, binding was characterised by a dissociation constant (Kd) of 1.34 nM.

As to B11, the Kd (in general, the constant that tells how readily two partners part at equilibrium) came out at 10.2 nM. For B12, the dissociation constant Kd came to 7.57 nM. Still for that read-out and setting: the same measure for B7: 14.7 nM; for B9: 1.63 nM; for B2: 0.91 nM. B3 came in with a Kd of 0.888 nM.

(Values after patent publication US20240301043A1 (Q32 BIO, published 2024).)
